B1: Exonuclease 1, biotinylated, full length (enzyme, human, UniProt Q9UQ84 1-846, looked up)
chain: MGIQGLLQFIKEASEPIHVRKYKGQVVAVDTYCWLHKGAIACAEKLAKGEPTDRYVGFCMKFVNMLLSHGIKPILVFDGCTLPSKKEVERSRRERRQANLLKGKQLLREGKVSEARECFTRSINITHAMAHKVIKAARSQGVDCLVAPYEADAQLAYLNKAGIVQAIITEDSDLLAFGCKKVILKMDQFGNGLEIDQARLGMCRQLGDVFTEEKFRYMCILSGCDYLSSLRGIGLAKACKVLRLANNPDIVKVIKKIGHYLKMNITVPEDYINGFIRANNTFLYQLVFDPIKRKLIPLNAYEDDVDPETLSYAGQYVDDSIALQIALGNKDINTFEQIDDYNPDTAMPAHSRSHSWDDKTCQKSANVSSIWHRNYSPRPESGTVSDAPQLKENPSTVGVERVISTKGLNLPRKSSIVKRPRSAELSEDDLLSQYSLSFTKKTKKNSSEGNKSLSFSEVFVPDLVNGPTNKKSVSTPPRTRNKFATFLQRKNEESGAVVVPGTRSRFFCSSDSTDCVSNKVSIQPLDETAVTDKENNLHESEYGDQEGKRLVDTDVARNSSDDIPNNHIPGDHIPDKATVFTDEESYSFESSKFTRTISPPTLGTLRSCFSWSGGLGDFSRTPSPSPSTALQQFRRKSDSPTSLPENNMSDVSQLKSEESSDDESHPLREEACSSQSQESGEFSLQSSNASKLSQCSSKDSDSEESDCNIKLLDSQSDQTSKLRLSHFSKKDTPLRNKVPGLYKSSSADSLSTTKIKPLGPARASGLSKKPASIQKRKHHNAENKPGLQIKLNELWKNFGFKKDSEKLPPCKKPLSPVRDNIQLTPEAEEDIFNKPECGRVQRAIFQ
modifications: biotinylated (co-infected with a BirA virus)

What was measured:
Assay in all cases: pull-down
[1] = target: Mre11-Rad50-Nbs1 complex (triple flag on Mre11) (human, UniProt P49959 1-708; Q92878 1-1312; O60934 1-754)
Sequence of Mre11-Rad50-Nbs1 complex (triple flag on Mre11) (Q92878 whole entry, one chain of several): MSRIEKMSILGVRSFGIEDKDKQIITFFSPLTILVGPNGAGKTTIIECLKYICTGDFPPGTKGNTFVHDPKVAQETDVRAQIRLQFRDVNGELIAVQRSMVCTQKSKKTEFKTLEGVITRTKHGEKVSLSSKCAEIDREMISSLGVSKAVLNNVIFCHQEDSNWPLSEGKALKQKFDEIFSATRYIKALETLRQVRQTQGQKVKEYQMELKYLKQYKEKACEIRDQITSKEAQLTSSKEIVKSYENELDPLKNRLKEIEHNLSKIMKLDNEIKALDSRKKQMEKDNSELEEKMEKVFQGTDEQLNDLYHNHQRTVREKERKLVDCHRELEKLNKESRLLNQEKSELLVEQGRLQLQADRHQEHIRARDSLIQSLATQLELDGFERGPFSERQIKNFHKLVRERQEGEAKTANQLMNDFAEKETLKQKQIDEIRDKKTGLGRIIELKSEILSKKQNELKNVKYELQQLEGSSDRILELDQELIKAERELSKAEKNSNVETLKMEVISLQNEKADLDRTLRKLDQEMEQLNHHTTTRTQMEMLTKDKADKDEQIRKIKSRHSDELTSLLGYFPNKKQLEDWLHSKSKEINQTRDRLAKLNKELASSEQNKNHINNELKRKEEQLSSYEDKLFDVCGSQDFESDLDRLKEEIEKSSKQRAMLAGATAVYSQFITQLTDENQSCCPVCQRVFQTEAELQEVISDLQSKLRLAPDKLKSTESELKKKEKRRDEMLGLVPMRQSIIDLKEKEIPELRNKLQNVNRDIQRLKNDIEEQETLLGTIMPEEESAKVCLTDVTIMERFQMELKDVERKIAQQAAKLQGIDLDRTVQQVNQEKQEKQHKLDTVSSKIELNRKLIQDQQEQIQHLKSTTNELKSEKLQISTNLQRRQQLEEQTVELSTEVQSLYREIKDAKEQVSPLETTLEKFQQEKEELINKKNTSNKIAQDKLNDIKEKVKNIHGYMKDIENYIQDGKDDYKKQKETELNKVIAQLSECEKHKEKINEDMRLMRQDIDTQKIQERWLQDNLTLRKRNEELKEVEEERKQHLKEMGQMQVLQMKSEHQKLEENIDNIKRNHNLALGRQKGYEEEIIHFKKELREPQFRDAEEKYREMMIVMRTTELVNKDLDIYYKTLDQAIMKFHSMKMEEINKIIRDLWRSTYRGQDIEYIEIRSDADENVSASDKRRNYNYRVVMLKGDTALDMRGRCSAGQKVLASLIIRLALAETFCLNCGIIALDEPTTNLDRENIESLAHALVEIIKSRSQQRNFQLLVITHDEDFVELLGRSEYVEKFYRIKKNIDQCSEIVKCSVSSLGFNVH

[2] = target: B1
[3] = target: T1, Mre11, flag-tagged, purified alone (human, UniProt P49959 1-708)
T1 sequence (looked up): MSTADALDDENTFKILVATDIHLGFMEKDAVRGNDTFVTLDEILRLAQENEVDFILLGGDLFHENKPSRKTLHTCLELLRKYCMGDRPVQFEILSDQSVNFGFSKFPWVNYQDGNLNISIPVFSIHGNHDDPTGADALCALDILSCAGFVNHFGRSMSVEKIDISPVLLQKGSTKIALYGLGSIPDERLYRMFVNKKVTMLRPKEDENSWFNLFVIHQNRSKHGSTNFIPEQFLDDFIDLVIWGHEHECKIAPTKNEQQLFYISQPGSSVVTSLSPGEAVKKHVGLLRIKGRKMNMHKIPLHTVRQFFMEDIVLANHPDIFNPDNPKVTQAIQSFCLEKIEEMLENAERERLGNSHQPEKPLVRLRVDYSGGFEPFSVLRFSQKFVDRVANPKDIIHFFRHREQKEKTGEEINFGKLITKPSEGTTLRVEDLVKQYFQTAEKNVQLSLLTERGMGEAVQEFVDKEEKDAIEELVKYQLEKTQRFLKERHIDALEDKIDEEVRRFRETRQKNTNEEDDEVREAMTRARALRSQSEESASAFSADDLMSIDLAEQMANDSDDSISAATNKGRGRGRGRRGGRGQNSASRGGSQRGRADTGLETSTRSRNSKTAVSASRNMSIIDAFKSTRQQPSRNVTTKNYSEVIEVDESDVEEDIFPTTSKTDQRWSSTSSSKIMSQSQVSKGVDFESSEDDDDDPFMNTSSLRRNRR

B1
binding result [1]: binds

B2: Nbs1, flag-tagged, purified alone (natural protein, human, UniProt O60934 1-754, looked up)
chain: MWKLLPAAGPAGGEPYRLLTGVEYVVGRKNCAILIENDQSISRNHAVLTANFSVTNLSQTDEIPVLTLKDNSKYGTFVNEEKMQNGFSRTLKSGDGITFGVFGSKFRIEYEPLVACSSCLDVSGKTALNQAILQLGGFTVNNWTEECTHLVMVSVKVTIKTICALICGRPIVKPEYFTEFLKAVESKKQPPQIESFYPPLDEPSIGSKNVDLSGRQERKQIFKGKTFIFLNAKQHKKLSSAVVFGGGEARLITEENEEEHNFFLAPGTCVVDTGITNSQTLIPDCQKKWIQSIMDMLQRQGLRPIPEAEIGLAVIFMTTKNYCDPQGHPSTGLKTTTPGPSLSQGVSVDEKLMPSAPVNTTTYVADTESEQADTWDLSERPKEIKVSKMEQKFRMLSQDAPTVKESCKTSSNNNSMVSNTLAKMRIPNYQLSPTKLPSINKSKDRASQQQQTNSIRNYFQPSTKKRERDEENQEMSSCKSARIETSCSLLEQTQPATPSLWKNKEQHLSENEPVDTNSDNNLFTDTDLKSIVKNSASKSHAAEKLRSNKKREMDDVAIEDEVLEQLFKDTKPELEIDVKVQKQEEDVNVRKRPRMDIETNDTFSDEAVPESSKISQENEIGKKRELKEDSLWSAKEISNNDKLQDDSEMLPKKLLLTEFRSLVIKNSTSRNPSGINDDYGQLKNFKKFKKVTYPGAGKLPHIIGGSDLIAHHARKNTELEEWLRQEMEVQNQHAKEESLADDLFRYNPYLKRRR
binding result [2]: binds

B3: Exo1(NTD), catalytic Exo1 core, N-terminal domain encoding amino acids 1-352, biotinylated (domain or fragment, human, UniProt Q9UQ84 1-352, looked up)
chain: MGIQGLLQFIKEASEPIHVRKYKGQVVAVDTYCWLHKGAIACAEKLAKGEPTDRYVGFCMKFVNMLLSHGIKPILVFDGCTLPSKKEVERSRRERRQANLLKGKQLLREGKVSEARECFTRSINITHAMAHKVIKAARSQGVDCLVAPYEADAQLAYLNKAGIVQAIITEDSDLLAFGCKKVILKMDQFGNGLEIDQARLGMCRQLGDVFTEEKFRYMCILSGCDYLSSLRGIGLAKACKVLRLANNPDIVKVIKKIGHYLKMNITVPEDYINGFIRANNTFLYQLVFDPIKRKLIPLNAYEDDVDPETLSYAGQYVDDSIALQIALGNKDINTFEQIDDYNPDTAMPAHSR
binding result [3]: binds

— paper PMC5609712 (Molecular cell, 2017)
